Measurements taken from patent US20180194839A1 (Novartis, published 2018).

T1: human IL-17A (construct not stated) (human, UniProt Q16552 24-155, limits assumed)
T1 sequence: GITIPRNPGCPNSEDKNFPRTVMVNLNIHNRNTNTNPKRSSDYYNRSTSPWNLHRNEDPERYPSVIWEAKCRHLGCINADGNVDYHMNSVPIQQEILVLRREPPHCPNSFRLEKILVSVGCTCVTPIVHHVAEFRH

T2: recombinant rat IL-17A (SEQ ID NO: 85) (rat, UniProt Q61453 18-150)
T2 construct: also called rratIL-17A; rIL-17A
T2 sequence: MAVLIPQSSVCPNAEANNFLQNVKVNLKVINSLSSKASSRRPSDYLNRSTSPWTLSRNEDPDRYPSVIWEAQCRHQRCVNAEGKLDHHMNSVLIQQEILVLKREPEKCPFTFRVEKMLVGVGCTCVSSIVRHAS

T3: recombinant mouse IL-17A (SEQ ID NO: 83) (mouse, UniProt Q62386 26-158)
T3 construct: also called mIL-17A; rmIL-17A
T3 sequence: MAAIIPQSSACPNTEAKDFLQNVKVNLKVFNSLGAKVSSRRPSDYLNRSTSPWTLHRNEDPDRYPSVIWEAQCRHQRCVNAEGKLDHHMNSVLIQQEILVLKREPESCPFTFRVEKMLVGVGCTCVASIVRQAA

T4: recombinant mouse IL-17A/F (R&D Systems Cat#5390-IL) (mouse, UniProt Q62386 26-158; Q7TNI7 29-161, limits assumed)
T4 construct: bought heterodimer; also called mIL-17A/F; rmIL-17A/F
T4 sequence (looked up) 1: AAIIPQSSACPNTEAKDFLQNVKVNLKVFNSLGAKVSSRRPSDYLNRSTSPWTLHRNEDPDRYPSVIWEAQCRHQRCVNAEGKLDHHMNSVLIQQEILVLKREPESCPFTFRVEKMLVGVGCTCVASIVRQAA
T4 sequence (looked up) 2: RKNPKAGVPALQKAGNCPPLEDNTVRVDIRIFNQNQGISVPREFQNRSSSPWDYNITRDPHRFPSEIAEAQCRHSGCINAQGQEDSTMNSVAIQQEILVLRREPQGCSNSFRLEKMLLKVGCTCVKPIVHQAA

T5: recombinant cynomolgus IL-17A (SEQ ID NO: 79) (cynomolgus monkey, UniProt Q16552 24-155 (human entry), limits assumed)
T5 construct: also called cynoIL-17A; cyno IL-17A
T5 chain: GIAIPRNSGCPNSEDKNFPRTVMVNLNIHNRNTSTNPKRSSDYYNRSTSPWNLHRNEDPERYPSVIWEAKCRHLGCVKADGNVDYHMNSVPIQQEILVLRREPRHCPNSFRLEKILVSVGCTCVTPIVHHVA

T6: recombinant human IL-17A/F heterodimer (human, UniProt Q16552 24-155; Q96PD4 31-163, limits assumed)
T6 construct: heterodimer of an IL-17A subunit and an IL-17F subunit; also called huIL-17A/F; rhuIL-17A/F
T6 sequence (looked up) 1: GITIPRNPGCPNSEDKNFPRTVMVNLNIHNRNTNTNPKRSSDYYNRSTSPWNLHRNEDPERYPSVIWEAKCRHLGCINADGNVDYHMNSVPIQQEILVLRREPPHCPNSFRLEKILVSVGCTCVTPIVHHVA
T6 sequence (looked up) 2: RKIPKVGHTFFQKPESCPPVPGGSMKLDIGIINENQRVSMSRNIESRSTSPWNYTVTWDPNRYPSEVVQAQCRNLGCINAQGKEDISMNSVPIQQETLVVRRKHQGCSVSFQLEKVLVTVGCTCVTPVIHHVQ

T7: recombinant human IL-17A (SEQ ID NO: 78) (human, UniProt Q16552 24-155, limits assumed)
T7 construct: homodimer; also called huIL-17A; hulL-17A
T7 sequence: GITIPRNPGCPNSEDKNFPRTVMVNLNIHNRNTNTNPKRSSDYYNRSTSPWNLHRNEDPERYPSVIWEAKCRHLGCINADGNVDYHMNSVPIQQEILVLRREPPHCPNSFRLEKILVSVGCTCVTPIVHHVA

B1: XAB4 (antibody, human IgG1, kappa, V domains shown)
VH: EVQLVESGGDLVQPGGSLRLSCAASGFTFSSYWMSWVRQAPGKGLEWVANIKQDGSEKYYVDSVKGRFTISRDNAKNSLYLQMNSLRAEDTAVYYCARDRGSLYYWGQGTLVTVSS
VL: AIQLTQSPSSLSASVGDRVTITCRPSQGINWELAWYQQKPGKAPKLLIYDASSLEQGVPSRFSGSGSGTDFTLTISSLQPEDFATYYCQQFNSYPLTFGGGTKVEIKR
notes: also called MB435 N56Q
B2: XAB1 (antibody, human IgG1, kappa, V domains shown)
VH: EVQLVESGGDLVQPGGSLRLSCAASGFTFSSYWMSWVRQAPGKGLEWVANIKQDGSEKYYVDSVKGRFTISRDNAKNSLYLQMNSLRAEDTAVYYCARDRGSLYYWGQGTLVTVSS
VL: AIQLTQSPSSLSASVGDRVTITCRPSQGIISALAWYQQKPGKAPKLLIYDASSLENGVPSRFSGSGSGTDFTLTISSLQPEDFATYYCQQFNSYPLTFGGGTKVEIKR
notes: human IgG1/kappa monoclonal antibody; also called parental XAB1; XAB1 IgG

Columns and labels:
[1] = biological target: T1, human IL-17A (construct not stated); test: cell-based or functional assay
[2] = biological target: T2, recombinant rat IL-17A (SEQ ID NO: 85); test: SPR (Biacore), captured antibody, antigen as analyte
Method: (§1) One chip surface was coated and reused without significant loss of binding capacity. Ligand concentrations were chosen to start below the KD and to end at a concentration higher than ten times the KD.
(§2) The kinetic traces were evaluated with the Biacore™ T200 Control Software version 1.0. The full set of these traces with increasing concentrations is taken together and is called a run. Two zero concentration samples (blank runs) were included in each analyte concentration series to allow double-referencing during data evaluation

[3] = biological target: T3, recombinant mouse IL-17A (SEQ ID NO: 83); test: as above
Method: as §1, §2

[4] = biological target: T4, recombinant mouse IL-17A/F (R&D Systems …); test: as above
Method: as §1, §2

[5] = biological target: T5, recombinant cynomolgus IL-17A (SEQ ID …); test: as above
Method: as §1, §2

[6] = biological target: T6, recombinant human IL-17A/F heterodimer; test: as above
Method: as §1, §2

[7] = biological target: T7, recombinant human IL-17A (SEQ ID NO: 78); test: as above
Method: as §1, §2

Binder	EC50, in vitro neutralization activity, T = 0 weeks [1]	EC50, in vitro neutralization activity, T = 4 weeks at pH 8, 40°C (forced deamidation) [1]	Kd [2]	koff [2]	Kd [3]	koff [3]	Kd [4]	koff [4]	Kd [5]	koff [5]	Kd [6]	koff [6]	Kd [7]	koff [7]
B1	0.048 µg/mL	47 ng/ml	–	–	–	–	–	–	–	–	–	–	–	–
B2	–	–	0.301 nM	0.000164 s⁻¹	0.353 nM	0.000143 s⁻¹	5.09 nM	0.000955 s⁻¹	0.526 nM	0.000113 s⁻¹	1.48 nM	0.00134 s⁻¹	0.0403 nM	9.39e-05 s⁻¹
